Test results reported in paper PMC3461310 (2013).
“And” between values parts separate entries of the source, which are not always exact repeats. Equal values may be shown once.

Legend:
thrombin ([6F]FFR-T) [1] = molecular target: thrombin ([6F]FFR-T) (Homo sapiens, UniProt P00734, active site labeled with 6-fluorescein-FFR, heparin (T·Hep complex)); assay: fluorescence equilibrium binding
thrombin ([4′F]FPR-T) [2] = molecular target: thrombin ([4′F]FPR-T) (Homo sapiens, UniProt P00734, active site labeled with 4′-fluorescein-FPR, heparin (T·(Hep)2 complex)); assay: fluorescence equilibrium binding
thrombin ([4′F]FPR-T) [3] = molecular target: thrombin ([4′F]FPR-T) (Homo sapiens, UniProt P00734, active site labeled with 4′-fluorescein-FPR, heparin (T·Hep complex)); assay: fluorescence equilibrium binding
thrombin ([6F]FFR-T) [4] = molecular target: thrombin ([6F]FFR-T) (Homo sapiens, UniProt P00734, active site labeled with 6-fluorescein-FFR, heparin (T·(Hep)2 complex)); assay: fluorescence equilibrium binding
thrombin = thrombin (Homo sapiens, UniProt P00734, heparin (1 and 50 μM)); assay: inactivation kinetics with Hir-
thrombin ([4′F]FPR-T) [5] = molecular target: thrombin ([4′F]FPR-T) (Homo sapiens, UniProt P00734, active site labeled with 4′-fluorescein-FPR); assay: fluorescence equilibrium binding

B1: heparin cofactor II (protein)
chain: GSKGPLDQLEKGGETAQSADPQWEQLNNKNLSMPLLPADFHKENTVTNDWIPEGEEDDDYLDLEKIFSEDDDYIDIVDSLSVSPTDSDVSAGNILQLFHGKSRIQRLNILNAKFAFNLYRVLKDQVNTFDNIFIAPVGISTAMGMISLGLKGETHEQVHSILHFKDFVNASSKYEITTIHNLFRKLTHRLFRRNFGYTLRSVNDLYIQKQFPILLDFKTKVREYYFAEAQIADFSDPAFISKTNNHIMKLTKGLIKDALENIDPATQMMILNCIYFKGSWVNKFPVEMTHNHNFRLNEREVVKVSMMQTKGNFLAANDQELDCDILQLEYVGGISMLIVVPHKMSGMKTLEAQLTPRVVERWQKSMTNRTREVLLPKFKLEKNYNLVESLKLMGIRMLFDKNGNMAGISDQRIAIDLFKHQGTITVNEEGTQATTVTTVGFMPLSTQVRFTVDRPFLFLIYEHRTSCLLFMGRVANPSRS
Thrombin ([6F]FFR-T) [1]
  Kd: 300 nM and 150 nM
Thrombin ([4′F]FPR-T) [2]
  Kd: 600 nM
Thrombin ([4′F]FPR-T) [3]
  Kd: 200 nM and 230 nM
Thrombin ([6F]FFR-T) [4]
  Kd: 140 nM
thrombin
  Kd: 40 nM

B2: prothrombin fragment 2 fragment 2 (protein)
chain: SEGSSVNLSPPLEQCVPDRGQQYQGRLAVTTHGLPCLAWASAQAKALSKHQDFNSAVQLVENFCRNPDGDEEGVWCYVAGKPGDFGYCDLNYCEEAVEEETGDGLDEDSDRAIEGRTATSEYQTFFNPR
Thrombin ([4′F]FPR-T) [5]
  Kd: 5000 nM
